From patent US20130158238A1 (THERACLONE SCIENCES, published 2013)
Substitutions are numbered along the chain they refer to.

B1: 3241_G23 (antibody, V domains shown)
VH: QVQLQQSGPGLVKPSQTLSLTCTVSGGPVSGGGYSWNWIRQRPGQGLEWVGFMFHSGSPRYNPTLKSRITISVDTSKNLVSLKLSSVTAADTAVYFCARVGQMDKYYAMDVWGQGTTVTVSS
VL: DIQMTQSPSSLSSSVGDRVTITCRASQSIGAYVNWYQQKAGKAPQVLIFGASNLQSGVPSRFSGSGSGTDFTLTISSLQPEDFATYFCQQTYSTPITFGQGTRLEIK
B2: 3260_D19 (antibody, V domains shown)
VH: DMQLVESGGGLVPPGGSLRLSCAASGFSVSDNYINWVRQAPGKGLDWVSVFYSADRTSYADSVKGRFTVSSHDSKNTVYLQMNSLRAEDTAVYYCARVQKSYYGMDVWGQGTTVTVSS
VL: GIQMTQSPSSLSASVGDRVTITCRASQSISRYLNWYLQKPGKAPKLLISGASSLQSGVPSRFSGTGSGTEFTLTISSLQPEDFATYYCQQTFSIPLFGQGTKVEIK
B3: 3242_P05 (antibody, V domains shown)
VH: B2 VH
VL: B2 VL
B4: 3252_C13 (antibody, V domains shown)
VH: QVQLQESGPGLVKPSETLSLTCTVSGASISSDYWSWIRLPPGKGLEWIGYIYNRGSTKYTPSLKSRVTISLDTAENQFSLRLRSVTAADTAIYYCARHVGGHTYGIDYWGQGTLVTVSS
VL: DIQMTQSPSSLSASVGDRVTITCRASQSISNYLNWYQHKPGEAPKLLNYAASSLQSGVPSRFSASGSGTDFTLTISSLQPEDFATYYCQQSYNTPITFGQGTRLEIK
B5: 3420_I23 (antibody, V domains shown)
VH: QVQLQESGPGLVKPSETLSVTCKVSGDSISSYSWSWIRQPPGKGLEWVGYLYYSGSTKYNPSLKSRTTISVDTSTNQLSLKLSFVTAADTAVYFCARTGSESTTGYGMDVWGQGTTVTVSS
VL: B4 VL with N31T, H38Q, E42K, N48I, Q55H, A64G, T72A, N93S, T94P
B6: 3255_J06 (antibody, V domains shown)
VH: B4 VH with I92V
VL: B4 VL with T74S, S77G, Q100P
B7: 3362_B11 (antibody, V domains shown)
VH: QVQLQASGPGLVKPSETLSLTCTVSGDSITSGAYYWTWIRQHPGKGLEWIGYIYYSGNTYYNPSLKSRVTISLDTSKNQFSLKVNSVTAADTAVYYCARAASTSVLGYGMDVWGQGTTVTVSS
VL: B4 VL with N31R, H38Q, K39E, E42K, N48V, A64G, N93S, I96L
B8: 3244_I10 (antibody, V domains shown)
VH: QVQLQESGPGLLKPSDTLALTCTVSGGSITSDYWSWIRQPPGRGLDWIGFFYNGGSTKYNPSLKSRVTISADTSKNQLSLKLTSVTAADTGVYYCARHDAKFSGSYYVASWGQGTRVTVSS
VL: DIQMTQSPSSLSASVGDRVTISCRASQSISTYLNWYQQQPGKAPKVLIFGATNLQSGVPSRFSGSGSGTDFTLTISSLQPEDFATYYCQQSYNTPLIFGQGTKLEIK
B9: 3243_J07 (antibody, V domains shown)
VH: B8 VH with A100V
VL: B8 VL with F49S
B10: 3253_P10 (antibody, V domains shown)
VH: B8 VH
VL: B8 VL with F49S, N53D
B11: TCN-032 Fab fragment (Fab, V domains shown)
VH: QVQLQESGPGLVKPSETLSLTCTVSGSSISNYYWSWIRQSPGKGLEWIGFIYYGGNTKYNPSLKSRVTISQDTSKSQVSLTMSSVTAAESAVYFCARASCSGGYCILDYWGQGTLVTVSS
VL: DIQMTQSPSSLSASVGDRVTITCRASQNIYKYLNWYQQRPGKAPKGLISAASGLQSGVPSRFSGSGSGTDFTLTITSLQPEDFATYYCQQSYSPPLTFGGGTRVEIK
B12: 3248_P18 (antibody, V domains shown)
VH: QVQLQESGPGLVKPSETLSLTCTVSGGSISAYHWSWIRQPPGKGLEWIGHIFDSGSTYYNPSLKSRVTISLDASKNQLSLRLTSVTASDTAIYYCARPLGSRYYYGMDVWGQGTTVTVSS
VL: DIQMTQSPSSLSASVGDRVTITCRASQSISRYLNWYQQKPGKAPKLLIYGASTLQNGAPSRFSGSGSGTDFTLTISSLQPEDSATYLCQQSYSVPAFGGGTKVEVK
B13: 3136_G05 (antibody, V domains shown)
VH: QVQLQESGPGLVKPSETLSLTCSVSGGSISSDFWSWIRQPPGKGLEWIGYVYNRGSTKYSPSLKSRVTISADMSKNQFSLNMSSVTAADTAVYYCAKNGRSSTSWGIDVWGKGTTVTVSS
VL: DIQMTQSPSSLSASVGDRLTITCRASQSISTYLHWYQQKPGKAPKLLIYAASSLQSGVPSRFSGSRSGTDFTLTISSLQPDDFATYYCQQSYSPPLTFGPGTKVDMK
B14: 3245_O19 (antibody, V domains shown)
VH: EVQLVESGGGLVQPGGSLRLSCTASGLSVSSTYMNWVRQAPGKGLEWVSVFYSETRTYYADSVKGRFTVSRHNSNNTLYLQMNSLRVEDTAVYYCARVQRLSYGMDVWGQGTTVTVSS
VL: DIQMTQSPSSLSASVGDRVTITCRASQSISTYLNWYQKRPGKAPKLLVYGASTLQSGVPSRFSGSGSGTDFTLTIASLQPEDSATYYCQQTYSIPLFGQGTRLEIK
B15: 3244_H04 (antibody, V domains shown)
VH: B14 VH with V87A
VL: B14 VL with T53S, T85V
B16: 3139_P23 (antibody, V domains shown)
VH: QVQLQESGPRLVKPSESLSLTCTVSGGSISNSFWGWIRQPPGEGLEWIGYVYNSGNTKYNPSLKSRVTISRDTSKSQLYMKLRSVTAADTAVYYCARHDDASHGYSISWGHGTLVTVSS
VL: DIQMTQSPSSLSASVGDRVTITCRASQTISTYLNWYQQKSGKAPKLLIYAASGLQSGVPSRFSGSGSGTDFTLTISSLQPEDFATYFCQQSYNTPLTFGQGTKVEIK
B17: 3259_J21 (antibody, V domains shown)
VH: QVQLQESGPRVVRPSETLSLTCTVSGGSISSYNWIWIRQPPGKGLEWIGHIYDYGRTFYNSSLQSRPTISVDASKNQLSLRLTSVTASDTAVYYCARPLGILHYYAMDLWGQGTTVTVSS
VL: DIQMTQSPLSVSVSVGDRVTIACRASQSIDKFLNWYQQKPGKAPKLLIYGASNLHSGAPSRFSASGSGTDFTLTITNIQTEDFATYLCQQSFSVPAFGGGTKVEIK
B18: TCN-031 Fab fragment (Fab, V domains shown)
VH: EVQLVESGGGLVQPGGSLRISCAASGFTVSSNYMSWVRQAPGKGLEWVSVIYSGGSTYYADSVKGRFSFSRDNSKNTVFLQMNSLRAEDTAVYYCARCLSRMRGYGLDVWGQGTTVTVSS
VL: DIQMTQSPSSLSASVGDRVTITCRTSQSISSYLNWYQQKPGKAPKLLIYAASSLQSGVPSRFSGSGSGTDFTLTISGLQPEDFATYYCQQSYSMPAFGQGTKLEIK

Columns and labels:
[1] = target: M2 protein of A/Puerto Rico/8/34 (H1N1), on cells (Influenza A virus A/Puerto Rico/8/34 (H1N1)) (UniProt P06821); test: flow cytometry on MDCK cells infected with A/Puerto Rico/8/34
[2] = target: M2 protein of A/Hong Kong/483/1997, on cells (Influenza A virus A/Hong Kong/483/97 (H5N1)); test: FACS, supernatant on CHO cells stably expressing M2 of A/Hong Kong/483/97
[3] = target: M2 protein on influenza A/Puerto Rico/8/34 (H1N1) virus particles (Influenza A virus A/Puerto Rico/8/34 …, UniProt P06821 1-97); test: surface plasmon resonance, Fab on influenza virus

Row | Molecule | FACS M2-HK MFI [2] [MFI] | also measured
1 | TCN-031 (antibody) |  | EC50 (read off the curve) [1]: 200 ng/mL
2 | TCN-032 (antibody) |  | EC50 (read off the curve) [1]: 100 ng/mL
3 | B1 | 1700 | 
4 | B2 | 846 | 
5 | B3 | 596 | 
6 | B4 | 449 | 
7 | B5 | 112 | 
8 | B6 | 442 | 
9 | B7 | 218 | 
10 | B8 | 434 | 
11 | B9 | 131 | 
12 | B10 | 43 | 
13 | B11 |  | Kd [3]: 3.2 nM; koff [3]: 0.0023 s⁻¹; kon [3]: 740000 M⁻¹ s⁻¹
14 | B12 | 967 | 
15 | B13 | 109 | 
16 | B14 | 919 | 
17 | B15 | 963 | 
18 | B16 | 110 | 
19 | B17 | 1670 | 
20 | B18 |  | Kd [3]: 14 nM; koff [3]: 0.014 s⁻¹; kon [3]: 1e+06 M⁻¹ s⁻¹
